For experiment [1], the target named is T1, biotinylated TGPAvi (Galaxea fascicularis (coral), biotin on the Avi-tag (BirA)).
T1 chain 1: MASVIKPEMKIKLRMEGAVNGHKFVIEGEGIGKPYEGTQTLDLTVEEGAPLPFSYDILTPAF
T1 chain 2: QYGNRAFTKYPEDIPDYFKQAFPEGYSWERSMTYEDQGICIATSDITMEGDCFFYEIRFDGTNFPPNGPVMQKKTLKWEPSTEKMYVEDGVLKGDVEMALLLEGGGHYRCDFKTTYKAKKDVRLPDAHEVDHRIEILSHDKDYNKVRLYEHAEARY
Nature of the experiment: BLI. In general terms: Biolayer interferometry detects binding as a change in optical thickness at a sensor tip.

Experiment [2] addresses T1, biotinylated TGPAvi. Nature of the experiment: BLI.

Among the data in article PMC7729955 (2020) are koff and Kd values, retold here.

By koff is commonly meant a measure of how fast the partners let go of each other. Low readings indicate a long-lived complex, high ones a short-lived complex. The term Kd denotes the equilibrium constant for the complex coming apart. Read a low Kd as a tighter complex.

B1: sybody 92 (VHH)
VHH: QVQLVESGGGLVQAGGSLRLSCAASGFPVDTQWMHWYRQAPGKEREWVAAISSTGRSTFYADSVKGRFTISRDNAKNTVYLQMNSLKPEDTAVYYCTVYVGNRYRGQGTQVTVS
With B1, the koff in the experiment with biotinylated TGPAvi [1] turned out to be 0.00066 s⁻¹. In addition, the Kd with biotinylated TGPAvi [2] came out at 3.3 nM.

B2: sybody 66 (VHH)
VHH: QVQLVESGGGLVQAGGSLRLSCAASGFPVMENSMYWYRQAPGKEREWVAAITSQGSWTWYADSVKGRFTISRDNAKNTVYLQMNSLKPEDTAVYYCHVSVGTNYTGQGTQVTVS
Consider B2, for which the koff in the experiment with biotinylated TGPAvi [1] is 0.0013 s⁻¹. Further, the affinity with biotinylated TGPAvi [2], expressed as Kd, was 7.8 nM.

B3: sybody 68 (VHH)
VHH: QVQLVESGGGLVQAGGSLRLSCAASGFPVNAVTMWWYRQAPGKEREWVAAIKSQGAGTWYADSVKGRFTISRDNAKNTVYLQMNSLKPEDTAVYYCHVYVGAYRYEGRGTQVTVS
On to B3, for which, in the experiment with biotinylated TGPAvi [1], the koff was 0.0012 s⁻¹. In the experiment with biotinylated TGPAvi [2], this molecule showed an equilibrium dissociation constant (Kd) of 10.4 nM.

B4: sybody 44 (VHH)
VHH: QVQLVESGGGLVQAGGSLRLSCAASGFPVGRASMWWYRQAPGKEREWVAAISSYGWVTAYADSVKGRFTISRDNAKNTVYLQMNSLKPEDTAVYYCEVSVGTGYRGQGTQVTVS
For B4, in the experiment with biotinylated TGPAvi [1], the koff was determined as 0.00085 s⁻¹. In addition, in the experiment with biotinylated TGPAvi [2], the dissociation constant (Kd) was 4.4 nM.
